doi:10.1101/2025.07.22.666130 (bioRxiv, 2025)
Changes are numbered by the printed parent chain. Names may count otherwise. Where two headings read alike, the source gives them in different places.

T1: RAD52 full length (UniProt P43351 1-418)
T1 sequence: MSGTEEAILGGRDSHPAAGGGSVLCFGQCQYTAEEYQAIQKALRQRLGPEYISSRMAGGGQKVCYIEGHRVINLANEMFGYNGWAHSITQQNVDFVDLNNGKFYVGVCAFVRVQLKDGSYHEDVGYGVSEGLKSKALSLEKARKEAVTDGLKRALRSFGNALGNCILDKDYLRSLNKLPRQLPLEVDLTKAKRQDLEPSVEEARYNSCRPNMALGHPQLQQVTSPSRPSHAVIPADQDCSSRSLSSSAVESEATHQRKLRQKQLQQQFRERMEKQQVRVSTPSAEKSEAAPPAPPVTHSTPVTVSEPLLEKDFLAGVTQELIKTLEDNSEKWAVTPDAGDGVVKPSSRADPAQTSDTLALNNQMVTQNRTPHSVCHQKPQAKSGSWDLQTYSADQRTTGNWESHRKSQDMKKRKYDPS

T2: RAD52-CTD (UniProt P43351 217-418)
T2 sequence: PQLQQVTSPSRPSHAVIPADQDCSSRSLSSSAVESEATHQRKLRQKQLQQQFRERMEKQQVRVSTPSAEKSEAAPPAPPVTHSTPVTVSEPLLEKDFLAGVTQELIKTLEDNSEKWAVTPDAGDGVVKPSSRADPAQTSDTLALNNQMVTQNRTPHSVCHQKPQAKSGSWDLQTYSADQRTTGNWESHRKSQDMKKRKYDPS

B1: Human RPA70N (1-120) (domain or fragment)
chain: MVGQLSEGAIAAIMQKGDTNIKPILQVINIRPITTGNSPPRYRLLMSDGLNTLSSFMLATQLNPLVEEEQLSSNCVCQIHRFIVNTLKDGRRVVILMELEVLKSAEAVGVKIGNPVPYNE
B2: no. 1 63-mer ssDNA (ssDNA)
DNA: ACAGCACCAGATTCAGCAATTAAGCTCTAAGCCATCCGCAAAAATGACCTCTTATCAAAAGGA
B3: GST-tagged RAD52 CTD (217-418) wild type (domain or fragment)
chain: T2 sequence
B4: GST-tagged RAD52 CTD (217-418) L314A/V317N/L321Q/I322Q/L325A/W332A (domain or fragment, human, UniProt P43351 217-418, looked up)
chain: T2 sequence with L98A, V101N, L105Q, I106Q, L109A, W116A
B5: 15N-labeled RAD52-CTD (217-418), GST tag cleaved (domain or fragment)
chain: T2 sequence
modifications: uniformly 15N labeled
B6: no. 517 63-mer RNA (ssRNA)
RNA: UCCUUUUGAUAAGAGGUCAUUUUUGCGGAUGGCUUAGAGCUUAAUUGCUGAAUCUGGUGCUGU

How the values were obtained:
[1] = molecular target: B5; experiment: NMR titration
[2] = molecular target: T1, RAD52 full length; experiment: EMSA
[3] = molecular target: T2, RAD52-CTD; experiment: EMSA
[4] = molecular target: T3, full-length RPA trimer (RPA70:RPA14:RPA32) (human, UniProt P27694;P15927;P35244); experiment: pull-down
[5] = molecular target: T3, full-length RPA trimer …; experiment: pull-down; remark: listed apart in the source
[6] = molecular target: T3, full-length RPA trimer …; experiment: NMR titration
[7] = molecular target: T1, RAD52 full length; experiment: EMSA; remark: listed apart in the source
[8] = molecular target: T2, RAD52-CTD; experiment: EMSA; remark: listed apart in the source
[9] = molecular target: RPA heterotrimer (RPA70:RPA32:RPA14) (human, UniProt P27694;P15927;P35244 1-616;1-270;1-121); experiment: EMSA
Chain of RPA heterotrimer (RPA70:RPA32:RPA14) (P15927 whole entry, chain 2 of 2): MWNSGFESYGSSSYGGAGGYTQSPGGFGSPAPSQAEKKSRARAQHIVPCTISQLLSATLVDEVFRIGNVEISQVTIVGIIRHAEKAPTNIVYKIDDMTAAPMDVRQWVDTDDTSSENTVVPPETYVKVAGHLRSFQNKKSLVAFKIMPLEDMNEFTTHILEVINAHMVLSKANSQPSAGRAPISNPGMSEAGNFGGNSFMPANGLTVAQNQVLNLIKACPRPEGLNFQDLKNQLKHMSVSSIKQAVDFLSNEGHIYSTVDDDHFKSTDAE
Chain of RPA heterotrimer (RPA70:RPA32:RPA14) (P35244 whole entry, chain 3 of 2): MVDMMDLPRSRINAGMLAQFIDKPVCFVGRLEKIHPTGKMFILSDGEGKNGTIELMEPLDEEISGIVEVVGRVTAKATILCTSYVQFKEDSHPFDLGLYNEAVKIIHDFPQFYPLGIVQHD

T3 sequence (P15927 whole entry, chain 2 of 2): as the sequence (P15927 whole entry, chain 2 of 2) above
T3 sequence (P35244 whole entry, chain 3 of 2): as the sequence (P35244 whole entry, chain 3 of 2) above

Binder: B1
binding result [1]: binds

Binder: B2
binding result [2]: binds | binding result [3]: no binding

Binder: B3
binding result [4]: binds

Binder: B4
binding result [5]: binds

Binder: B5
binding result [6]: binds

Binder: B6
binding result [7]: binds | binding result [8]: no binding | binding result [9]: binds
